Test results taken from the supplement of paper PMC7125110.
± gives the standard error. Fewer inactive variants are shown than the library holds.

B1: glmS ribozyme (parent)
chain: AUAAAAGCGCCAGAACUACAGAAAUGUAGUUGACGAGGAGGAGGUUUAUCGAAUUUUCGGCGGAUGCCUCCAAA

Assays:
Details in all cases: with glucosamine-6-phosphate
glucosamine-6-phosphate [1] = variants of: B1; assay: self-cleavage kobs at 640 uM GlcN6P; higher = faster cleavage; RNA array
Method in brief: (§1)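 Tracking of barcoded ribozyme variants used a hybridised Cy3 probe at 37 °C, after in situ transcription by E. coli RNA polymerase on sequenced MiSeq chips. The flowed solution held 40 μM to 10 mM glucosamine-6-phosphate in HEPES/KCl/Mg(OAc)2 buffer, and imaging ran over ~14 h. kobs was taken from exponential decay fits of normalised per-tile medians, and kcat and KM from weighted Michaelis–Menten fits.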

glucosamine-6-phosphate [2] = variants of: B1; assay: self-cleavage kobs at 2500 uM GlcN6P; higher = faster cleavage; RNA array
Method in brief: as §1

glucosamine-6-phosphate [3] = variants of: B1; assay: self-cleavage kobs at 10000 uM GlcN6P; higher = faster cleavage; RNA array
Method in brief: as §1

Row | Variant | self-cleavage kobs at 640 uM GlcN6P (glucosamine-6-phosphate [1]) [s⁻¹] | self-cleavage kobs at 2500 uM GlcN6P (glucosamine-6-phosphate [2]) [s⁻¹] | self-cleavage kobs at 10000 uM GlcN6P (glucosamine-6-phosphate [3]) [s⁻¹]
1 | AUAAAAGCACCAGAACUACAGAAAUGUAUUUGACGAGGAGAAGGAUGAUUGAAUUUUCGGCGGAUGCCUUCAAA [G9A G29U G41A U45A U47G C50U C70U] | < 1e-05 | – | –
2 | AUAAAAGCGCCAGAACUACAGAAAUGUAGUUGACGAGGAAGAGGUUUUUCGAAUUAUCUGCGGAUGCAUCCAAA [G40A A48U U56A G59U C68A] | < 1e-05 | < 1e-05 | –
3 | AUAAAAGCGCCAGAACUACAGAAAUGUAGUUGACGAGUAGGGGGUUUAUCGAUUUUUCGGCGGAUGCCUCCAAA [G38U A42G A53U] | < 1e-05 | – | –
4 | AUAAAAACGCCAGAACUACAGAAAUGUAGUUGACGAGGUGGAGGUUUAUCGACUUUUCGGCGGCUGCCUCCAAA [G7A A39U A53C A64C] | < 1e-05 | – | –
5 | AUAAAAGAGCCAGAACUACAGAAAUGUAGUUGACCAGGAGGAGGUUUAUCGAAUUUUCGGCGGAUUCCUCCGAA [C8A G35C G66U A72G] | < 1e-05 | – | –
6 | AUAAAAGCUACAGAACUACAGAAAUGUAGUUGACGAGGAGGAGGUUUAUCGAAUUUUCGGCGGAUGCCUCCAAA [G9U C10A] | < 1e-05 | < 1e-05 | –
7 | AUAAAAGCGCCAGAACUACAGAAAUGUAGUUGACGAUGAGGAGGUUUAUCGAAUUUUCGGCGGAUGCCUGAAAA [G37U C70G C71A] | 5.1e-05 ± 1.4e-05 | – | –
8 | AUAAAAGCGCCAGAACUACAGAAAUGUAGUUGACGGGGCGGAGGUUUAUCGAAUUUUCGGCGGUUGCCUCGAAA [A36G A39C A64U C71G] | < 1e-05 | < 1e-05 | –
9 | AUAAAAGCGCCGGAACUACAGAAAUGUAGUAGACGAGGAGGAGGUUUAUCGAAUUUUCGGCGGAUGCCUCCAAA [A12G U31A] | 5.56e-05 ± 9.9e-06 | 7.25e-05 ± 1.1e-05 | 0.000227 ± 2.4e-05
10 | AUAAAAGCGACAGAACUACAGAAAUGUAGUUGACGAGUGGGAGGUUUAUCGAAUUUUCGGCGGAUGCCUCCAAA [C10A G38U A39G] | < 1e-05 | < 1e-05 | –
11 | AUAAAAGCGCCCGAACUACAGAAAUGUAGUAGACGAGGAGGAGGUUUAUCGAAUUUACGGCGGAUGCCUCCAAA [A12C U31A U57A] | 4.6e-05 ± 2.3e-05 | 4.93e-05 ± 1.6e-05 | –
12 | AUAAAAGCGCCAGAACUACAGAAAUGUAGUUGACGCGGAGGAUGUUUAUCGAAUUUUCGUCGGAUGCCUCCAAA [A36C G43U G60U] | < 1e-05 | – | –
13 | AUAAAAGCGCUAGAACUACAGAAAUGUACUAGAAGAGGAGGAGGUUUAUCGCAUUUUCGUCGGAUGCCUCCAAA [C11U G29C U31A C34A A52C G60U] | < 1e-05 | < 1e-05 | –
14 | AUAAAAGCGCCAGUACUACAGAAAUGUAGUUGACGCGGAGGAGAUUUAUCGAAUCUUCGGAGGAUGCCUCCAAA [A14U A36C G44A U55C C61A] | < 1e-05 | – | –
15 | AUAAAAGCGCCAGAACUACAGAAAUGUAGCUGACGAGAAGGAGAUUUAUCGAAUUUUCGGCGGAUGCCUCCAAA [U30C G38A G44A] | < 1e-05 | < 1e-05 | –
16 | AUAAAAGCGCCAGAACUACAGAAAUGUAGUUGACGAGGAUGAUGUUUACCGAAUUUUCGGCGGAUGCCUCCAAA [G40U G43U U49C] | < 1e-05 | < 1e-05 | –
17 | AUAAAAGCGCCCGAACUACAGAAAUGUAGUUUACGAGGAGGAGGUUUAUCGAAUUUUCGGCGGAUGCCUCCAAA [A12C G32U] | 5.84e-05 ± 2.3e-05 | 8.84e-05 ± 1.6e-05 | 0.000265 ± 5e-05
18 | AUAAAUGCGCCAGAGCUACAGAAAUGUAGUUGACGAGGAGGAGGUUUUUCGAAUUUUCGGCGGAUGCCUCCAAA [A6U A15G A48U] | < 1e-05 | – | –
19 | AUAAAGGCGCCAGAACUACAGAAAUGUAGUUGACGAGGAGGAGGUUUAUCUAAUUAUCGGCGGAUGCCUCUAAA [A6G G51U U56A C71U] | < 1e-05 | – | < 1e-05
20 | AUAAAAGCGCCAGAACUACAGAAAUGUAGUUGACGAGGAGGAGGAUUAUCGAAUUUUCGGCGCAUGCCUCCAAA [U45A G63C] | < 1e-05 | < 1e-05 | –
21 | AUAAAAGCGCCAGUACUACAGAAAUGUAUUUGACGAGGAGGAGGUUUAUGGAAUUUUCGGCGGAUGCCUCCAAA [A14U G29U C50G] | 8.61e-05 ± 3.2e-05 | – | –
22 | AUAAAUGCGCCGGAACUACAGAAAUGUAGUUGACGAGGGGGAGGUUUAUCGAAUUUUCGGCGCAUGCCUCCAAA [A6U A12G A39G G63C] | < 1e-05 | < 1e-05 | –
